Data on 17 sequences can be found in the DeepSol protein solubility set.

This data set can be described thus: soluble on expression in E. coli; label from the status in PepcDB or PDB records.
Consider “MKREDLLRHLAETEVWDMIVIGGGATGLGTAVEAAGRGYRTLLLEQGDFAQGTSSRSTKLIHGGVRYLQQGNLTLVLEALRERGLLIRNAPHLVHNLSFVVPLYDWWEGPFYGIGLKLYDVLAGKLGLGPSRLLSREETLGHIPTVEPHGLRGGVIYHDGQFDDSRLAISLALTLADLGGVALNHFPVTGIISRDGLVAGVEARDRETGGAFRIMGRAVINAAGPFVDGVRRLADPAARDLIAPSQGVHLVLDGSFLPGDSAIMVPHTDDGRVLFAVPWHGRTVVGTTDTPIPAAGLEPRPLPEEIDFLLSHAARYLTRHPERRDVLSTFAGIRPLVRSDSGGDTASLSRDHTLLVEGSGLVTIAGGKWTTYRKMGEDTVTAAAQVAGLDHRPSVTETLRIHGWQEDATEGPLQVYGSDAAALEQLLRENAAWREPLHPALPYCAGEVVWGVRHEWARTVEDVLARRTRALLLDARAAVAAAPRVAELMARELGRDSDWQAAQVAAFTHLARGYLPELEHHHHHH”, for which the “soluble on expression in E. coli” value is “not soluble”.

As to “MGSDKIHHHHHHMSSSTTPDLLYPSADKVAEPSDNIHGDELRLRERIKDNPTNILSYFQLIQYLETQESYAKVREVYEQFHNTFPFYSPAWTLQLKGELARDEFETVEKILAQCLSGKLENNDLSLWSTYLDYIRRKNNLITGGQEARAVIVKAFQLVMQKCAIFEPKSSSFWNEYLNFLEQWKPFNKWEEQQRIDMLREFYKKMLCVPFDNLEKMWNRYTQWEQEINSLTARKFIGELSAEYMKARSLYQEWLNVTNGLKRASPINLRTANKKNIPQPGTSDSNIQQLQIWLNWIKWERENKLMLSEDMLSQRISYVYKQGIQYMIFSAEMWYDYSMYISENSDRQNILYTALLANPDSPSLTFKLSECYELDNDSESVSNCFDKCTQTLLSQYKKIASDVNSGEDNNTEYEQELLYKQREKLTFVFCVYMNTMKRISGLSAARTVFGKCRKLKRILTHDVYVENAYLEFQNQNDYKTAFKVLELGLKYFQNDGVYINKYLDFLIFLNKDSQIKTLFETSVEKVQDLTQLKEIYKKMISYESKFGNLNNVYSLEKRFFERFPQENLIEVFTSRYQIQNSNLIKKLELTYMYNEEEDSYFSSGNGDGHHGSYNMSSSDRKRLMEETGNNGNFSNKKFKRDSELPTEVLDLLSVIPKRQYFNTNLLDAQKLVNFLNDQVEIPTVESTKSG”, the “soluble on expression in E. coli” value is listed as “not soluble”.

“MEWAAKKTNSLTSSSERTWKANLLVPVEDPRELMGTFDFLRDITYPKGSVKLLGLAGNTDKENLLSQLPSISEGFQEEGVFSSWTIIDTAEFEENLVVGMEALTGSFFRPSILFLRLPENRDRDEEIREIIRKASMYRMGVLLFSKHPQAGLGRQNLINLWIENRGLDWDISMELGNMDLALLIAYKLKSNWKASLSFMTFAPTAIQAQAAENFLQSLAELARIPNVKMQVLRENPIKSSKLPFASLHIFSLDPNPDLDLARHLMEKAGSSCIFALDSGEENALALLEHHHHHH”: the “soluble on expression in E. coli” value is given as “soluble”.

For “MFKPELLSPAGTLKNMRYAFAYGADAVYAGQPRYSLRVRNNEFNHENLQLGINEAHALGKKFYVVVNIAPHNAKLKTFIRDLKPVVEMGPDALIMSDPGLIMLVREHFPEMPIHLSVQANAVNWATVKFWQQMGLTRVILSRELSLEEIEEIRNQVPDMEIEIFVHGALCMAYSGRCLLSGYINKRDPNQGTCTNACRWEYNVQEGKEDDVGNIVHKYEPIPVQNVEPTLGIGAPTDKVFMIEEAQRPGEYMTAFEDEHGTYIMNSKDLRAIAHVERLTKMGVHSLKIEGRTKSFYYCARTAQVYRKAIDDAAAGKPFDTSLLETLEGLAHRGYTEGFLRRHTHDDYQNYEYGYSVSDRQQFVGEFTGERKGDLAAVAVKNKFSVGDSLELMTPQGNINFTLEHMENAKGEAMPIAPGDGYTVWLPVPQDLELNYALLMRNFSGETTRNPHGK”, the “soluble on expression in E. coli” value is listed as “soluble”.

For the sequence “MVLPKDVKWDLIRQFQRHEQDTGSPEVQIAILTERINRLTEHMKKHKKDIHSRRGLIAMVNKRRKLLEYLRETDYAKYLEVVQKLNLKVK”, the “soluble on expression in E. coli” value is given as “soluble”.

Take “MRSALSLKPSNGNAAKSQAVNNKNVIKNAPLGGKLTRQIGTSNLLQQALPSKKIDESPIIKIDAKDSFKVFEDQEPEKENSSENVDATEKDSNVIPAEDNNMIHELERKMEEKSRAEKLKFKFMQTRDNSDITSRFSEPPSEFSVLCDDDDCDKVSVASSTFTTSVRATFSSFHFDENQRKKEFGKEEAVKKIQKKAAKEARDDSMFSSEEFFPDIIKYMLHRQTKNRASHECFDIQSQVNEEMRTILIDWFSDVVKEYNFQKETFHLAVSLVDRALSMFNIDKMRFQLVGTTSMMIAVKYEEIFPPEIEDFALITDNTYRVPDILLMERFLLGKFDFVVAMPTSSWFGTCFAKRMNFTKKMRNTVHYLLELSLIDVHFLRYRPSDIAAAACCFANLQADVESWPQKMVDDTGISTEDFVDVLRDLHRMYLNASTADFKSIFYNYSETAQMEVALLPAPTDKLRSMFPSIFVTAPKSSNDSSSPQ”: the “soluble on expression in E. coli” value is listed as “not soluble”.

For “MGSDKIHHHHHHYLPDDEPKKLIVNAMMQTENNDNRIYLHYTGWTATTPVTDGIIHLYINGKLSETITAEDDYYPVKSIFRTGDKVKIEASSENGKYKAKAETRISAPLQIINVDTTYISLRDYNSWVGGKPVYDNYLRLNIQLKQPDIEAENTYYRLEIKQIFYSHKWHDGRDTLSIDTTYNYNYIYDTALTDGKPGHAIDEGFELIQKWNNYFGLFKSCYFKNREYNMTIDLKEDINYIHIDSQKAERYISIRFYSISESEHRYLYAMSSALDFDAENFIYAVPLIPNNIKGGIGIFSIANQVKYKLKEENCQDRY”, the “soluble on expression in E. coli” value is reported as “not soluble”.

“MRVDIWSDVVCPFCYIGKKRLEHVAAEAGIELDVHWHSFELDPDAPTSHDTSNTERLAKKYGRTFEEMQEMQQNIASMAAQEGIDFQWQKANSGNSFNAHRIIHLAQSKGLGNEAEEAFFHAYMTEGLAIGEREVVEEIASRIGLDHAEVEFVLDSNELSDFVRHDEKIAHEQLNISGVPFFVFDQKLALSGAQPKEVFLQVLQKALTQRENDAVAEASSDAVCSDDSCDIPQKS”: the “soluble on expression in E. coli” value is reported as “not soluble”.

As for “MMEDDGQPRTLYVGNLSRDVTEVLILQLFSQIGPCKSCKMITEHTSNDPYCFVEFYEHRDAAAALAAMNGRKILGKEVKVNWATTPSSQK”, the “soluble on expression in E. coli” value is on record as “soluble”.

Consider “MKPYERLLEHNIKPSMQRIAIMEYLMNHPIHPSADDIYTALSPSMPTLSKTTVYNTLRLFSEQGAALMLTIDEKNTNFDADTSVHSHFLCRYCGHIYDLKSPEAVKKVESLEMDGHQVTEVHYYYKGICKNCLRKDKETRID”, for which the “soluble on expression in E. coli” value was “not soluble”.

For the sequence “TDQFGMIGLLTFIRAAETDPGMVHLALGSDLTTLGLNLNSPENLYPKFASPWASSPCRPQDIDFHVPSEYLTNIHIRDKLAAIKLGRYGEDLLFYLYYMNGGDVLQLLAAVELFNRDWRYHKEERVWITRAPGMEPTMKTNTYERGTYYFFDCLNWRKVAKEFHLEYDKLEERPHLPSTFNYNPAQQAF”, the “soluble on expression in E. coli” value was “soluble”.

For “MTEEFYIGTYTKRISRGIYRVSVDTTTPKLMDCEWLASAGSPTYIAKSNAKRLYVINKKETDGQTHGGLIIYDMSEDKPRAIQQLLDLGSSPAYVAVDEDRQLVYTANYHTAAVDVYAINPDGTLKRTDQVIDQDPVGPAPEQADGPHPHFADLTPDNRLVVCDLGSDRVYVYDVSATGKLSAVSHLDLPAGYGPRHIVFDAKKGVAYLVGELSSNVATLSYDTATGTFTVKTIVSTIPDDWTAHNGAAAIRLSADGKFVYVSNRGNNSLAVFASDEAGQLTLVQRISTEGDFPRDFNWTANQRLVLVVNQNSDNASLFERDAQSGKLTLVQKDFMVPEGVSVLPAKLEHHHHHH”, the “soluble on expression in E. coli” value is on record as “soluble”.

With “METEEWFFKGISRKDAERQLLAPGNMLGSFMIRDSETTKGSYSLSVRDYDPRQGDTVKHYKIRTLDNGGFYISPRSTFSTLQELVDHYKKGNDGLCQKLSVPCMSSK”, the “soluble on expression in E. coli” value is listed as “soluble”.

With “SAAHQMDSITYSNNVTQQYIQPQSLQDISAVEDEIQNKIEAARQESKQLHAQINKAKHKIQDASLFQMANKVTSLTKNKINLKPNIVLKGHNNKISDFRWSRDSKRILSASQDGFMLIWDSASGLKQNAIPLDSQWVLSCAISPSSTLVASAGLNNNCTIYRVSKENRVAQNVASIFKGHTCYISDIEFTDNAHILTASGDMTCALWDIPKAKRVREYSDHLGDVLALAIPEEPNSENSSNTFASCGSDGYTYIWDSRSPSAVQSFYVNDSDINALRFFKDGMSIVAGSDNGAINMYDLRSDCSIATFSLFRGYEERTPTPTYMAANMEYNTAQSPQTLKSTSSSYLDNQGVVSLDFSASGRLMYSCYTDIGCVVWDVLKGEIVGKLEGHGGRVTGVRSSPDGLAVCTGSWDSTMKIWSPGYQ”, the “soluble on expression in E. coli” value is “not soluble”.

In the case of “MEHVAFGSEDIENTLAKMDDGQLDGLAFGAIQLDGDGNILQYNAAEGDITSRDPKQVIGKNFFKDVAPCTDSPEFYGKFKEGVASGNLNTMFEYTFDYQMTPTKVKVHMKKALSGDSYWVFVKRV”, the “soluble on expression in E. coli” value is recorded as “soluble”.

Turning to “MGSDKIHHHHHHMSVRNFMAYHQLSYTFLNHQKLPLIIQPQAKAEGNIDVLKQFLKEENTLFKEQLLNYGAIILRGFHVNTAEQFLEVIRSSDLGPNYSYDFCPIPRTQIRENIYTSINIHPSFNLALHNEKSYDQDFPSHIFFNCIHAPQTGGDTALADGNKIWFSLPKLLQKKLQSKGILYRRHYYGSGIQYKIIRSIGKNSGCMTWMERFQTDDQNKVEVMLQQMGVQFRWIQGNGLIIEQLLPACRNHPISGKLVWFNQSNHANHYYNGTSDYIKSKINNTFSRFILLHKYFHPYIAFYGDGEPLSKQEADCINSAIQKNTVSTAWQPGDVMIVDNFSCLHGKTPHTGNRLILVGLTKYFD”, the “soluble on expression in E. coli” value is on record as “not soluble”.

In the case of “MVRVEDSNGADTDTNPEGESSGYVRLAGNGLPGGEQQQASSSGVAAAPSVDSSPGRSVPLAIASSSSPANVANNQYAIPVDENGHRYVGLVNQAMTCYLNSLVQSLYMTPEFRNAMYDWEYVQQPAHIKEQRKKAEQSIPCQLQKLFLLLQTSENDSLETKDLTQSFGWTSNEAYDQHDVQELCRLMFDALEHKWKGTEHEKLIQDLYRGTMEDFVACLKCGRESVKTDYFLDLPLAVKPFGAIHAYKSVEEALTAFVQPELLDGSNQYMCENCKSKQDAHKGLRITQFPYLLTIQLKRFDFDYNTMHRIKLNDKMTFPDVLDLNDYVNKEKRSTTSSAWQQIGKNKSENEEDDMELGSPNPKRCTPGVQSPNRYQGSENVCVGQPIDHAAVDDIVKTSGDNVYELFSVMVHSGNAAGGHYFAYIKNLDQDRWYVFNDTRVDFATPLEIEKSFGGHPSGWNQSNTNAYMLMYRRIDPKRNARFILSNQLPQHIKDSQEKWKRLEREAEDERLRKLSLIQVYVTINYPFPSVVTLPDKKQLDLTPQKYQIAEDFGEYKTEISREMPIKNVFNHAFEFFNERARAYNLPFTKNSARLIYVEHGSLMMDFKSKADMDKKLRSVFNVNHGEPGSMYGVHFILDVRIASSFFPVDIKNKITIKVQRVDIGKKTTANELIVVVDANEKMIKVKSWIGGQFRDDIHGVLNARVVLEVASSRCEFMMIDVSHNATEFGSLIQQYVGHTTPTLYYDGGLNTMVTKESQEATLADRKLPFDKSVMYHILDRKCFSTMVKVRLPSQEEIEKAASTKNAYQGPTWAETIAIMKEEDRLWNEPRAAVEVMSTVSRTDTTDHALVADTDDEPIPSGRGSTASMRSVSMDDIDADIGISGSLCNNTPQMSPCVSEGDDADESQLDGKSQLMSDYMQKTSPDFYYNRDPQNHLNKNLKIALGDETPSESLSAVSSGQSTLVPSTSNQALSSMTRSDEAVDGKIVTVFSHENFHKLDVDSRMRVLEFKKWVAEQLEMDKDQFVIVKHASDDGSDSGYEANFMDDETVSGAFQSCFISIKLRAPLKSDEKMMQIILFDILENLRENWKPLFELPVSQSTVIGDVLLQCLRMYKEVYGEELTPKMVRLRELGGSGVGTGRAVLNPNDTLEKRSYNWCSHLYLQIITDEAMIGKPGEPIMVRRFRPSTVEVNPTHEVLVDANAENPVVSFVEALSKISGIPVERLAITDLKEFNWQKWPYLKSRLDMLENKVNFTKDLQVTYPLPREFLDKVGSRVLYYKDSDEEAKVLSEDERKQIKIKENGQSANANRRKERPLRIQMSSVCEA”, the “soluble on expression in E. coli” value is recorded as “not soluble”.
